In paper PMC7772352:

Biological target: Tva-HA-Fc

| Substance | percentage of GFP fluorescence signal in DF-1 cells transfected with RCASBPGDFX0602 G196A-EGFP (recombinant virus; wild type 89.65%) [%] | percentage of GFP fluorescence signal in DF-1 cells transfected with RCASBP GDFX0602 R198H-EGFP (recombinant virus; wild type 89.65%) [%] |
| --- | --- | --- |
| soluble gp85-flag G196A (natural protein) | 0.24 |  |
| soluble gp85-flag R198H (natural protein) |  | 0.49 |
